T1: phosphoribosyl-ATP pyrophosphohydrolase/phosphoribosyl-AMP cyclohydrolase (AbHisIE) (Acinetobacter baumannii, UniProt V5VH18)
T1 construct: gene hisIE; full-length AbHisIE (A. baumannii strain ATCC17978), recombinant
T1 sequence (V5VH18 1-257): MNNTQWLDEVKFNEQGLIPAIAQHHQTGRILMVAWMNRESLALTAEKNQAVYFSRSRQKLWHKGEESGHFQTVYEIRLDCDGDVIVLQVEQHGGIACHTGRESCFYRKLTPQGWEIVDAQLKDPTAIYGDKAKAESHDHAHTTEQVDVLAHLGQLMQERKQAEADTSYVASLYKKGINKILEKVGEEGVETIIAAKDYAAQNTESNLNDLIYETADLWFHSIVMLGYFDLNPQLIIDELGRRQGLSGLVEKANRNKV


Columns and labels:
[1] = target: T1, phosphoribosyl-ATP pyrophosphohydrolase/phosphoribosyl-AMP cyclohydrolase (AbHisIE); assay: initial rates of ProFAR formation from PRATP at […] nm, dose-response with purified AbHisIE; type: biochemical
[2] = substrate: N=c1c2ncn([C@@H]3O[C@H](COP(=O)(O)O)[C@@H](O)[C@H]3O)c2ncn1[C@@H]1O[C@H](COP(=O)(O)O)[C@@H](O)[C@H]1O; assay: purified protein; type: biochemical, Acinetobacter baumannii; conditions: Zn2+ (HisI-like domain) cyclohydrolase active site in the N-terminal HisI-like domain
[3] = substrate: N=c1c2ncn([C@@H]3O[C@H](COP(=O)(O)OP(=O)(O)OP(=O)(O)O)[C@@H](O)[C@H]3O)c2ncn1[C@@H]1O[C@H](COP(=O)(O)O)[C@@H](O)[C@H]1O; assay: purified protein; type: biochemical, Acinetobacter baumannii; conditions: Mg2+ (HisE-like domain); Zn2+ (HisI-like domain) pyrophosphohydrolase active site in the C-terminal HisE-like domain

Row | IC50 [1] [µM] | Molecule | Km [2] [µM] | Km [3] [µM] | kcat [3] [s⁻¹]
1 | 52 ± 4 | N=c1c2ncn([C@@H]3O[C@H](COP(=O)(O)OP(=O)(O)O)[C@@H](O)[C@H]3O)c2ncn1[C@@H]1O[C@H](COP(=O)(O)O)[C@@H](O)[C@H]1O [PRADP] |  |  | 
2 |  | phosphoribosyl-ATP pyrophosphohydrolase/phosphoribosyl-AMP cyclohydrolase (AbHisIE) (Acinetobacter baumannii) (protein, full-length AbHisIE (A. baumannii strain ATCC17978), recombinant) MNNTQWLDEVKFNEQGLIPAIAQHHQTGRILMVAWMNRESLALTAEKNQAVYFSRSRQKLWHKGEESGHFQTVYEIRLDCDGDVIVLQVEQHGGIACHTGRESCFYRKLTPQGWEIVDAQLKDPTAIYGDKAKAESHDHAHTTEQVDVLAHLGQLMQERKQAEADTSYVASLYKKGINKILEKVGEEGVETIIAAKDYAAQNTESNLNDLIYETADLWFHSIVMLGYFDLNPQLIIDELGRRQGLSGLVEKANRNKV | 11 | 4.0 ± 0.7 | 5.6 ± 0.3

— PMC10242683, “Catalytic Cycle of the Bifunctional Enzyme Phosphoribosyl-ATP Pyrophosphohydrolase/Phosphoribosyl-AMP Cyclohydrolase” (ACS Catalysis, 2023)
